# From article PMC9482650, “Quantitative fragmentomics allow affinity mapping of interactomes” (Nature Communications, 2022)
# T1: NHERF3_3, Q5T2W1
# T1 sequence (Q5T2W1 238-333, limits assumed, looked up): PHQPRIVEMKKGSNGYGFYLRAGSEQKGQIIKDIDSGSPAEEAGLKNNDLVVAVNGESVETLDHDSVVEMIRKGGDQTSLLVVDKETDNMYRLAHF
# T2: NHERF3_1, Q5T2W1
# T2 sequence (Q5T2W1 4-100, limits assumed, looked up): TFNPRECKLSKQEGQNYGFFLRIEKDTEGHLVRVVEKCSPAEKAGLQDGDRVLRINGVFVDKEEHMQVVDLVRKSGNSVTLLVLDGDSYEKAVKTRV
# T3: SNTG2, Q9NY99
# T3 sequence (Q9NY99 68-166, limits assumed, looked up): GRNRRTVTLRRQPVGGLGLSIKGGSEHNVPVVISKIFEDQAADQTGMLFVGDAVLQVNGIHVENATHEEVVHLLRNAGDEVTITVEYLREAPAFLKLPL
# T4: MPP6, Q9NZW5
# T4 sequence (Q9NZW5 125-219, limits assumed, looked up): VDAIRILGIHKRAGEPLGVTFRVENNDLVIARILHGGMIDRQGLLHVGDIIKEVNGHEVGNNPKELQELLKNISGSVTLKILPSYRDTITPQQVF
# T5: SNTG1, Q9NSN8
# T5 sequence (Q9NSN8 52-150, limits assumed, looked up): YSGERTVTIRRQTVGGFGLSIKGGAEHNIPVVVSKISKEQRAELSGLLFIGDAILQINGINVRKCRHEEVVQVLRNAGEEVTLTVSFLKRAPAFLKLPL
# T6: APBA1_2, Q02410
# T6 sequence (Q02410 742-832, limits assumed, looked up): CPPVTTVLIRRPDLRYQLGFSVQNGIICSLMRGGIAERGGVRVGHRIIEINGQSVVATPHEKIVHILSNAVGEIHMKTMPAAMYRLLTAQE
# T7: CARD11, Q9BXL7
# T7 sequence (Q9BXL7 662-765, limits assumed, looked up): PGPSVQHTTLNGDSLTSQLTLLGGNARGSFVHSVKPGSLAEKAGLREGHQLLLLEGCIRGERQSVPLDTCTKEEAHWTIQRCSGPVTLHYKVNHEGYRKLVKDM
# T8: LRRC7, Q96NW7
# T8 sequence (Q96NW7 1440-1537, limits assumed, looked up): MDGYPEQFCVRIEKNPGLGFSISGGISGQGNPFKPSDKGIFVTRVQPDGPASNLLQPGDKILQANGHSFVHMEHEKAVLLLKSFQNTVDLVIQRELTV
# T9: PARD3B_1, Q8TEW8
# T9 sequence (Q8TEW8 196-299, limits assumed, looked up): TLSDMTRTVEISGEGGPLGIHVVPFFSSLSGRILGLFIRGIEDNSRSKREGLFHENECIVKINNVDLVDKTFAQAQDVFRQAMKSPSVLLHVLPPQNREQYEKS
# B1: EGLN1, Q9GZT9 (peptide)
# chain: PSDSVGKDVF
# B2: RCN2, Q14257 (peptide)
# chain: HDDYFYHDEL
# Molecular target: DLG2_2, Q15700
# Experiment: holdup assay
# Set-up: key: below the threshold = too weak to quantify, mostly under pKd 3.1 to 4
# Conditions: plain residues with an end cap or a label only (N-terminal biotin on a linker: ado-ado)
# Sequence of DLG2_2, Q15700 (Q15700 189-283): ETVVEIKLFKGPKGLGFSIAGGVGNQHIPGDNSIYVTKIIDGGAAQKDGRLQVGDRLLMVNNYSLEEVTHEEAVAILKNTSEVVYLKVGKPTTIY
row,pKd,Binder
1,below the threshold,B1
2,below the threshold,B2

# Molecular target: T1, NHERF3_3, Q5T2W1
# Experiment: holdup assay
# Set-up: key: below the threshold = too weak to quantify, mostly under pKd 3.1 to 4
# Conditions: plain residues with an end cap or a label only (N-terminal biotin on a linker: ado-ado)
row,pKd,Binder
1,below the threshold,B1
2,below the threshold,B2

# Molecular target: T2, NHERF3_1, Q5T2W1
# Experiment: holdup assay
# Set-up: key: below the threshold = too weak to quantify, mostly under pKd 3.1 to 4
# Conditions: plain residues with an end cap or a label only (N-terminal biotin on a linker: ado-ado)
row,pKd,Binder
1,below the threshold,B1
2,4.34,B2

# Molecular target: PTPN3, P26045
# Experiment: holdup assay
# Set-up: key: below the threshold = too weak to quantify, mostly under pKd 3.1 to 4
# Conditions: plain residues with an end cap or a label only (N-terminal biotin on a linker: ado-ado)
# Sequence of PTPN3, P26045 (P26045 505-587): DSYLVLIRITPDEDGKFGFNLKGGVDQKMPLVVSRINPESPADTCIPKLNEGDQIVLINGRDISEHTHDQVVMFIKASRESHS
row,pKd,Binder
1,below the threshold,B1
2,below the threshold,B2

# Molecular target: T3, SNTG2, Q9NY99
# Experiment: holdup assay
# Set-up: key: below the threshold = too weak to quantify, mostly under pKd 3.1 to 4
# Conditions: plain residues with an end cap or a label only (N-terminal biotin on a linker: ado-ado)
row,pKd,Binder
1,below the threshold,B1
2,below the threshold,B2

# Molecular target: SCRIB_1, Q14160
# Experiment: holdup assay
# Set-up: key: below the threshold = too weak to quantify, mostly under pKd 3.1 to 4
# Conditions: plain residues with an end cap or a label only (N-terminal biotin on a linker: ado-ado)
# Sequence of SCRIB_1, Q14160 (Q14160 718-814): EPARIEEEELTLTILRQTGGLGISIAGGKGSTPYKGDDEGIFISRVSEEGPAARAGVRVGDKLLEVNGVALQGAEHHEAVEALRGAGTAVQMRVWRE
row,pKd,Binder
1,below the threshold,B1
2,below the threshold,B2

# Molecular target: LDB3, O75112
# Experiment: holdup assay
# Set-up: key: below the threshold = too weak to quantify, mostly under pKd 3.1 to 4
# Conditions: plain residues with an end cap or a label only (N-terminal biotin on a linker: ado-ado)
# Sequence of LDB3, O75112 (O75112 1-94): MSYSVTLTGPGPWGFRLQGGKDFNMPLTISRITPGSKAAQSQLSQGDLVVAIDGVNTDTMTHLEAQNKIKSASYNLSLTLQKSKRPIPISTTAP
row,pKd,Binder
1,below the threshold,B1
2,4.09,B2

# Molecular target: AHNAK1, Q09666
# Experiment: holdup assay
# Set-up: key: below the threshold = too weak to quantify, mostly under pKd 3.1 to 4
# Conditions: plain residues with an end cap or a label only (N-terminal biotin on a linker: ado-ado)
# Sequence of AHNAK1, Q09666 (Q09666 4-100): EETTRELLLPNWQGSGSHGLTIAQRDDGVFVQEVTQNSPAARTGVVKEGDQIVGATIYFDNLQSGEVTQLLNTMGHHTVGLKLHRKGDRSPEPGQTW
row,pKd,Binder
1,below the threshold,B1
2,below the threshold,B2

# Molecular target: IL16_4, Q14005
# Experiment: holdup assay
# Set-up: key: below the threshold = too weak to quantify, mostly under pKd 3.1 to 4
# Conditions: plain residues with an end cap or a label only (N-terminal biotin on a linker: ado-ado)
# Sequence of IL16_4, Q14005 (Q14005 1229-1329): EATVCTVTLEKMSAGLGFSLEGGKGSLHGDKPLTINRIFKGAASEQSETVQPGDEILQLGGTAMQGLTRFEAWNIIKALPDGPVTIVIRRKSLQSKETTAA
row,pKd,Binder
1,3.63,B1
2,below the threshold,B2

# Molecular target: MAGI2_3, Q86UL8
# Experiment: holdup assay
# Set-up: key: below the threshold = too weak to quantify, mostly under pKd 3.1 to 4
# Conditions: plain residues with an end cap or a label only (N-terminal biotin on a linker: ado-ado)
# Sequence of MAGI2_3, Q86UL8 (Q86UL8 600-682): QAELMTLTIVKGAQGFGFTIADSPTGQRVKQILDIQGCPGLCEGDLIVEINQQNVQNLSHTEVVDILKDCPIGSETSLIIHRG
row,pKd,Binder
1,below the threshold,B1
2,below the threshold,B2

# Molecular target: T4, MPP6, Q9NZW5
# Experiment: holdup assay
# Set-up: key: below the threshold = too weak to quantify, mostly under pKd 3.1 to 4
# Conditions: plain residues with an end cap or a label only (N-terminal biotin on a linker: ado-ado)
row,pKd,Binder
1,below the threshold,B1
2,3.74,B2

# Molecular target: T5, SNTG1, Q9NSN8
# Experiment: holdup assay
# Set-up: key: below the threshold = too weak to quantify, mostly under pKd 3.1 to 4
# Conditions: plain residues with an end cap or a label only (N-terminal biotin on a linker: ado-ado)
row,pKd,Binder
1,below the threshold,B1
2,below the threshold,B2

# Molecular target: Inadl_3, Q8NI35
# Experiment: holdup assay
# Set-up: key: below the threshold = too weak to quantify, mostly under pKd 3.1 to 4
# Conditions: plain residues with an end cap or a label only (N-terminal biotin on a linker: ado-ado)
# Sequence of Inadl_3, Q8NI35 (Q8NI35 359-469): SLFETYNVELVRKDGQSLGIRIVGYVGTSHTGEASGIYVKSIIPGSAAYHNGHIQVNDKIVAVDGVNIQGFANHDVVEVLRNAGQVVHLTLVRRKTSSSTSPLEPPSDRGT
row,pKd,Binder
1,below the threshold,B1
2,3.85,B2

# Molecular target: T6, APBA1_2, Q02410
# Experiment: holdup assay
# Set-up: key: below the threshold = too weak to quantify, mostly under pKd 3.1 to 4
# Conditions: plain residues with an end cap or a label only (N-terminal biotin on a linker: ado-ado)
row,pKd,Binder
1,below the threshold,B1
2,3.98,B2

# Molecular target: IL16_1, Q14005
# Experiment: holdup assay
# Set-up: key: below the threshold = too weak to quantify, mostly under pKd 3.1 to 4
# Conditions: plain residues with an end cap or a label only (N-terminal biotin on a linker: ado-ado)
# Sequence of IL16_1, Q14005 (Q14005 210-306): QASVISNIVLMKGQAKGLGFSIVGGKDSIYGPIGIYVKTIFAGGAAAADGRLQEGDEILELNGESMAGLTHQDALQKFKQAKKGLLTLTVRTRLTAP
row,pKd,Binder
1,below the threshold,B1
2,below the threshold,B2

# Molecular target: LIMK2, P53671
# Experiment: holdup assay
# Set-up: key: below the threshold = too weak to quantify, mostly under pKd 3.1 to 4
# Conditions: plain residues with an end cap or a label only (N-terminal biotin on a linker: ado-ado)
# Sequence of LIMK2, P53671 (P53671 143-248): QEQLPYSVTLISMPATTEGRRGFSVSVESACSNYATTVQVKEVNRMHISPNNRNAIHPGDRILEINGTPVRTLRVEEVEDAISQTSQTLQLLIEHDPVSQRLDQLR
row,pKd,Binder
1,below the threshold,B1
2,below the threshold,B2

# Molecular target: NHERF4_4, Q86UT5
# Experiment: holdup assay
# Set-up: key: below the threshold = too weak to quantify, mostly under pKd 3.1 to 4
# Conditions: plain residues with an end cap or a label only (N-terminal biotin on a linker: ado-ado)
# Sequence of NHERF4_4, Q86UT5 (Q86UT5 464-550): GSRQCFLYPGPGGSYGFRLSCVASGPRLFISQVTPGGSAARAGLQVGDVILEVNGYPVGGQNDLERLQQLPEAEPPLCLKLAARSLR
row,pKd,Binder
1,below the threshold,B1
2,below the threshold,B2

# Molecular target: DLG1_3, Q12959
# Experiment: holdup assay
# Set-up: key: below the threshold = too weak to quantify, mostly under pKd 3.1 to 4
# Conditions: plain residues with an end cap or a label only (N-terminal biotin on a linker: ado-ado)
# Sequence of DLG1_3, Q12959 (Q12959 457-571): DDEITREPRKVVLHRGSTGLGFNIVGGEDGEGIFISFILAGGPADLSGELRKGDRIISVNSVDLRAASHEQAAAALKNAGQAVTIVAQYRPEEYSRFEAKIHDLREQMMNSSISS
row,pKd,Binder
1,below the threshold,B1
2,below the threshold,B2

# Molecular target: T7, CARD11, Q9BXL7
# Experiment: holdup assay
# Set-up: key: below the threshold = too weak to quantify, mostly under pKd 3.1 to 4
# Conditions: plain residues with an end cap or a label only (N-terminal biotin on a linker: ado-ado)
row,pKd,Binder
1,below the threshold,B1
2,below the threshold,B2

# Molecular target: DLG5_1, Q8TDM6
# Experiment: holdup assay
# Set-up: key: below the threshold = too weak to quantify, mostly under pKd 3.1 to 4
# Conditions: plain residues with an end cap or a label only (N-terminal biotin on a linker: ado-ado)
# Sequence of DLG5_1, Q8TDM6 (Q8TDM6 617-713): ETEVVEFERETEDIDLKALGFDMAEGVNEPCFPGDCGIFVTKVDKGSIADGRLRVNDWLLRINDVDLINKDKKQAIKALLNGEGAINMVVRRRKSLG
row,pKd,Binder
1,below the threshold,B1
2,below the threshold,B2

# Molecular target: PICK1, Q9NRD5
# Experiment: holdup assay
# Set-up: key: below the threshold = too weak to quantify, mostly under pKd 3.1 to 4
# Conditions: plain residues with an end cap or a label only (N-terminal biotin on a linker: ado-ado)
# Sequence of PICK1, Q9NRD5 (Q9NRD5 17-115): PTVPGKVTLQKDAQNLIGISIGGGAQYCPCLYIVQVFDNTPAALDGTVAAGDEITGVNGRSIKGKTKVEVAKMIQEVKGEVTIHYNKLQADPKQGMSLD
row,pKd,Binder
1,below the threshold,B1
2,below the threshold,B2

# Molecular target: SCRIB_3, Q14160
# Experiment: holdup assay
# Set-up: key: below the threshold = too weak to quantify, mostly under pKd 3.1 to 4
# Conditions: plain residues with an end cap or a label only (N-terminal biotin on a linker: ado-ado)
# Sequence of SCRIB_3, Q14160 (Q14160 999-1103): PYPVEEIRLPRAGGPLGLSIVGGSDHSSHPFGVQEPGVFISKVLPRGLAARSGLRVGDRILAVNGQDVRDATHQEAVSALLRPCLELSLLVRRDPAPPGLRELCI
row,pKd,Binder
1,below the threshold,B1
2,3.81,B2

# Molecular target: GRASP, Q7Z6J2
# Experiment: holdup assay
# Set-up: key: below the threshold = too weak to quantify, mostly under pKd 3.1 to 4
# Conditions: plain residues with an end cap or a label only (N-terminal biotin on a linker: ado-ado)
# Sequence of GRASP, Q7Z6J2 (Q7Z6J2 96-193): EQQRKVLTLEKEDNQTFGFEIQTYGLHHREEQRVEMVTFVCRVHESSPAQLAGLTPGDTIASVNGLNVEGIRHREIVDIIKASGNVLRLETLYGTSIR
row,pKd,Binder
1,3.7,B1
2,5.01,B2

# Molecular target: GRIP2_6, Q9C0E4
# Experiment: holdup assay
# Set-up: key: below the threshold = too weak to quantify, mostly under pKd 3.1 to 4
# Conditions: plain residues with an end cap or a label only (N-terminal biotin on a linker: ado-ado)
# Sequence of GRIP2_6, Q9C0E4 (Q9C0E4 648-740): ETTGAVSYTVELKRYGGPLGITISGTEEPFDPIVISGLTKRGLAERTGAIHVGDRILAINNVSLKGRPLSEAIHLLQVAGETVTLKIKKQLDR
row,pKd,Binder
1,below the threshold,B1
2,below the threshold,B2

# Molecular target: T8, LRRC7, Q96NW7
# Experiment: holdup assay
# Set-up: key: below the threshold = too weak to quantify, mostly under pKd 3.1 to 4
# Conditions: plain residues with an end cap or a label only (N-terminal biotin on a linker: ado-ado)
row,pKd,Binder
1,below the threshold,B1
2,below the threshold,B2

# Molecular target: T9, PARD3B_1, Q8TEW8
# Experiment: holdup assay
# Set-up: key: below the threshold = too weak to quantify, mostly under pKd 3.1 to 4
# Conditions: plain residues with an end cap or a label only (N-terminal biotin on a linker: ado-ado)
row,pKd,Binder
1,3.5,B1
2,3.7,B2

# Molecular target: TJP1_3, Q07157
# Experiment: holdup assay
# Set-up: key: below the threshold = too weak to quantify, mostly under pKd 3.1 to 4
# Conditions: plain residues with an end cap or a label only (N-terminal biotin on a linker: ado-ado)
# Sequence of TJP1_3, Q07157 (Q07157 416-512): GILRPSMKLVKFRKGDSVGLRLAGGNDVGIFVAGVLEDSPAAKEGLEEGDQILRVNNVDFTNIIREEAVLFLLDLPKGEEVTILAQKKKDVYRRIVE
row,pKd,Binder
1,below the threshold,B1
2,below the threshold,B2

# Molecular target: LNX1_1, Q8TBB1
# Experiment: holdup assay
# Set-up: key: below the threshold = too weak to quantify, mostly under pKd 3.1 to 4
# Conditions: plain residues with an end cap or a label only (N-terminal biotin on a linker: ado-ado)
# Sequence of LNX1_1, Q8TBB1 (Q8TBB1 261-371): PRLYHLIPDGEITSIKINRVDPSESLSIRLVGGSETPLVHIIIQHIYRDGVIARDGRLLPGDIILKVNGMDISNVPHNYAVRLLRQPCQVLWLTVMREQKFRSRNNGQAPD
row,pKd,Binder
1,below the threshold,B1
2,below the threshold,B2
